Test results published in US20110086767A1, “MUTANTS OF GLYCOSIDE HYDROLASES AND USES THEREOF FOR SYNTHESIZING COMPLEX OLIGOSACCHARIDES AND DISACCHARIDE INTERMEDIATES” (Institut Pasteur, priority 2008, published 2011).
Changes are numbered by the printed parent chain. In names and notes the source's numbering stands.

Experiments:
Format in all cases: biochemical
[1] = HPLC screening of double-mutant libraries for variants able to glucosylate D-GlcpNAc; conditions: α-D-Glcp-(1→4)-α-D-GlcpNAc (ED) from sucrose and D-GlcpNAc, microplate format
Experimental: The protocol was established to enable the rapid identification of clones for which D-GlcpNAc glucosylation was improved. To obtain higher amounts of enzymes and facilitate detection of glucosylated compounds upon HPLC screening, mutants were produced in 96-DeepWell Format plates. Storage microplates containing monomutants were thawed and replicated to inoculate a starter culture in 96-well microplates containing, in each well, 150 μL LB medium supplemented with ampicillin (100 μg/mL). After growth for 24 h at 30° C. under agitation (200 rpm), plates were duplicated into 96-Deep Well plates containing, in each well, 1.1 mL LB medium supplemented with ampicillin (100 μg/mL) and IPTG (1 mM) to induce GST-AS expression. Cultures were then grown for 24 h at 30° C. under agitation (200 rpm). Plates were centrifuged (20 min, 3000 g, 4° C.) and the supernatant was removed. The cell pellet was resuspended in 200 μL of lysozyme (0.5 mg/mL), followed by freezing at −80° C. for 8 to 12 h. After thawing at room temperature, 100 μL of sucrose and 100 μL of acceptor (each at a final concentration of 73 mM) were added to each well. Enzymatic reaction was incubated at 30° C. during 24 h under agitation. The DeepWell plates were then centrifuged (20 min, 3000 g, 4° C.) and 300 μL of the supernatant was transferred to a filter micro-plate (PVDF 0.2 μm) to be clarified. Supernatant filtration was carried out by centrifugation of the filter micro-plate (5 min, 2000 g, 4° C.) into a novel microplate for screening.
The method for the expression of the mutant libraries is described in Example 1-1.
Acceptor reaction products were analyzed by HPLC analysis using a C18-AQ column (Bischoff C18, 125×4 mm, 3 μm) kept at room temperature and eluted with 0.6 mL/min of ultra-pure water to detect α-D-Glcp-(1→4)-α-D-GlcpNAc formation (analysis time: 7 min). To evaluate the efficiency of the glucosylation reaction, it was carried out complementary HPLC analyses with a Biorad HPX-87K Carbohydrate Analysis column (maintained at 65° C., and eluted at a flow rate of 0.6 mL/min with ultra-pure water). By this way, it was possible to measure sucrose consumption by RI detection and concomitant α-D-Glcp-(1-4)-α-D-GlcpNAc formation by UV220 nm and determine mutant ability to synthesize the desired disaccharide α-D-Glcp-(1→4)-α-D-GlcpNAc (i.e., % Glucosyl units transferred onto acceptor derivatives=[Glucosyl units transferred onto acceptor derivatives]/[Glucosyl units transferred from initial sucrose]×100)
All clones producing sucrose-utilizing variants were then picked and cultured in 96-well microplates. Following cell lysis, the acceptor reaction in the presence of D-GlcpNAc was then carried out in microplate format. HLPC analysis time for each clone was reduced to 7 min for detection of α-D-Glcp-(1→4)-α-D-GlcpNAc. When disaccharide formation was detected, complementary analyses were performed to determine sucrose consumption and disaccharide formation with more accuracy in order to calculate the glucosylation yield.

[2] = Kinetic parameters towards sucrose donor; conditions: for V250mM (initial rate of sucrose consumption): 250 mM sucrose; for behaviour (at high concentration): sucrose donor alone
Experimental: Enzyme assays were carried out in a total volume of 2 mL containing pure enzyme (0.073 mg, 0.153 mg and 0.092 mg when using A289P-F290C, A289P-F2901 and A289P-F290L, respectively).
Kinetic studies of AS variants were performed in the presence of sucrose (0-500 mM). At regular time intervals (2-5 min), aliquots (200 μL) were removed, heated (95° C., 2 min) and centrifuged (18000 g, 5 min) All the samples were filtered on a 0.22 μm membrane and analyzed using HPLC material previously described. The initial rate of sucrose consumed, corresponding to the initial rate of fructose released, was expressed in mole of fructose released per minute and per gram of enzyme. The kinetic parameters kcat and Km were calculated using Eadie-Hofstee plot.

[3] = Kinetic parameters towards α-D-GlcpNAc-OAll acceptor; conditions: 250 mM for both sucrose and α-D-GlcpNAc-OAll
Experimental: Enzyme assays were carried out in a total volume of 2 mL containing pure enzyme (0.037 mg, 0.076 mg and 0.046 mg when using A289P-F290C, A289P-F2901 and A289P-F290L, respectively).
The kcat/Km (α-D-GlcpNAc-OAll) value was calculated from the initial rate of formation of desired disaccharide (α-D-Glcp-(1→4)-α-D-GlcpNAc-OAll), corresponding to the initial rate of α-D-GlcpNAc-OAll consumed. As saturation was not achieved with the mutants, efficiency was calculated by linear regression analysis of the velocity versus substrate concentration plot.

B1: A289P-F290C: double mutant A289P, F290C of N. polysaccharea amylosucrase (protein)
chain: SPNSQYLKTRILDIYTPEQRAGIEKSEDWRQFSRRMDTHFPKLMNELDSVYGNNEALLPMLEMLLAQAWQSYSQRNSSLKDIDIARENNPDWILSNKQVGGVCYVDLFAGDLKGLKDKIPYFQELGLTYLHLMPLFKCPEGKSDGGYAVSSYRDVNPALGTIGDLREVIAALHEAGISAVVDFIFNHTSNEHEWAQRCAAGDPLFDNFYYIFPDRRMPDQYDRTLREIFPDQHPGGFSQLEDGRWVWTTFNSFQWDLNYSNPWVFRAMAGEMLFLANLGVDILRMDAVPCIWKQMGTSCENLPQAHALIRAFNAVMRIAAPAVFFKSEAIVHPDQVVQYIGQDECQIGYNPLQMALLWNTLATREVNLLHQALTYRHNLPEHTAWVNYVRSHDDIGWTFADEDAAYLGISGYDHRQFLNRFFVNRFDGSFARGVPFQYNPSTGDCRVSGTAAALVGLAQDDPHAVDRIKLLYSIALSTGGLPLIYLGDEVGTLNDDDWSQDSNKSDDSRWAHRPRYNEALYAQRNDPSTAAGQIYQDLRHMIAVRQSNPRFDGGRLVTFNTNNKHIIGYIRNNALLAFGNFSEYPQTVTAHTLQAMPFKAHDLIGGKTVSLNQDLTLQPYQVMWLEIA
- Glusosylation Yield to synthesize ED [1]: 100%
- V250mM (initial rate of sucrose consumption) [2]: 2186 µmol/min/g
- behaviour (at high concentration) [2]: saturation
- V250mM (initial rate of acceptor consumption) [3]: 50 000 μmol/min/g

B2: A289H-F290S: double mutant A289H, F290S of N. polysaccharea amylosucrase (protein)
chain: B1 chain with P289H, C290S
- Glusosylation Yield to synthesize ED [1]: 40%

B3: I228K-F290L: double mutant I228K, F290L of N. polysaccharea amylosucrase (protein)
chain: B1 chain with I228K, P289A, C290L
- Glusosylation Yield to synthesize ED [1]: 47%

B4: I228M-F229M: double mutant I228M, F229M of N. polysaccharea amylosucrase (protein)
chain: B1 chain with I228M, F229M, P289A, C290F
- Glusosylation Yield to synthesize ED [1]: 28%

B5: I228T-F290H: double mutant I228T, F290H of N. polysaccharea amylosucrase (protein)
chain: B1 chain with I228T, P289A, C290H
- Glusosylation Yield to synthesize ED [1]: 56%

B6: I228V-F290R: double mutant I228V, F290R of N. polysaccharea amylosucrase (protein)
chain: B1 chain with I228V, P289A, C290R
- Glusosylation Yield to synthesize ED [1]: 25%

B7: F290L: single mutant F290L of N. polysaccharea amylosucrase (protein)
chain: B1 chain with P289A, C290L
- Glusosylation Yield to synthesize ED ([1]; listed as DM4_P2_A2): 55%
- Glusosylation Yield to synthesize ED ([1]; listed as DM4_P2_G9): 20%

B8: A289T-F290H: double mutant A289T, F290H of N. polysaccharea amylosucrase (protein)
chain: B1 chain with P289T, C290H
- Glusosylation Yield to synthesize ED [1]: 40%

B9: I228L-F229L: double mutant I228L, F229L of N. polysaccharea amylosucrase (protein)
chain: B1 chain with I228L, F229L, P289A, C290F
- Glusosylation Yield to synthesize ED [1]: 35%

B10: F229L: single mutant F229L of N. polysaccharea amylosucrase (protein)
chain: B1 chain with F229L, P289A, C290F
- Glusosylation Yield to synthesize ED [1]: 49%

B11: I228V-F290H: double mutant I228V, F290H of N. polysaccharea amylosucrase (protein)
chain: B1 chain with I228V, P289A, C290H
- Glusosylation Yield to synthesize ED [1]: 61%

B12: I228P-F290C: double mutant I228P, F290C of N. polysaccharea amylosucrase (protein)
chain: B1 chain with I228P, P289A
- Glusosylation Yield to synthesize ED [1]: 22%

B13: F290H: single mutant F290H of N. polysaccharea amylosucrase (protein)
chain: B1 chain with P289A, C290H
- Glusosylation Yield to synthesize ED [1]: 46%

B14: I228V-F229M: double mutant I228V, F229M of N. polysaccharea amylosucrase (protein)
chain: B1 chain with I228V, F229M, P289A, C290F
- Glusosylation Yield to synthesize ED [1]: 29%

B15: I228V-F229L: double mutant I228V, F229L of N. polysaccharea amylosucrase (protein)
chain: B1 chain with I228V, F229L, P289A, C290F
- Glusosylation Yield to synthesize ED [1]: 56%

B16: F290I: single mutant F290I of N. polysaccharea amylosucrase (protein)
chain: B1 chain with P289A, C290I
- Glusosylation Yield to synthesize ED [1]: 16%

B17: F290G: single mutant F290G of N. polysaccharea amylosucrase (protein)
chain: B1 chain with P289A, C290G
- Glusosylation Yield to synthesize ED [1]: 53%

B18: A289P-F290I: double mutant A289P, F290I of N. polysaccharea amylosucrase (protein)
chain: B1 chain with C290I
- Glusosylation Yield to synthesize ED [1]: 100%
- V250mM (initial rate of sucrose consumption) [2]: 946 µmol/min/g
- behaviour (at high concentration) [2]: saturation
- V250mM (initial rate of acceptor consumption) [3]: 51 400 μmol/min/g

B19: I228K-F290W: double mutant I228K, F290W of N. polysaccharea amylosucrase (protein)
chain: B1 chain with I228K, P289A, C290W
- Glusosylation Yield to synthesize ED [1]: 50%
